According to the RNAGym collection of RNA variant scans (doi:10.7554/elife.90254):

B1: LINE1-mini (parent)
chain: GGCAGAGCUCAACACAGCGUGGCAAAGUGGCUGUGGCUAGACUGCC

Variants of: B1
Assay: self-cleavage, relative activity (ratio to wild type); higher = more cleavage; in vitro, sequencing; the parent is a self-cleaving ribozyme

First: GGCAGAGCUCAACACAGCGUGGCAAAGUGGCUGUGGCUGGAUUGCC [A39G C42U]
Second: GGCAGAGCUCAACACAGCUUGGCAAAGUGGCUGUGGCUAGCCUGCC [G19U A41C]
The self-cleavage of the first is higher: 0.12 for the first, 0.03 for the second.

First: GGCAGAGCUCAACACAGCGUGGCAAAGUGGCAGUGGCUAGACAGCC [U32A U43A]
Second: GGCAGAGCUCUACACAGCGUGGCAAAGUUGCUGUGGCUAGACUGCC [A11U G29U]
The self-cleavage of the first is lower: 0.08 for the first, 0.17 for the second.

Compared with GGCAGAGCUCAACACAGCGUGGCAAAGUGGCUGUUGCUAGCCUGCC [G35U A41C], GGCAGAGCUCAACACAGCGGGGCAAAGUGGCGGUGGCUAGACUGCC [U20G U32G] is higher in self-cleavage: 0.08 for the first, 0.09 for the second.

Going from GGCAGAGCUCAACACAGCGUGGCUAAGUGGCUGUGGCUAGACUGCA [A24U C46A] to CUCAGAGCUCAACACAGCGUGGCAAAGUGGCUGUGGCUAGACUGCC [G1C G2U], the self-cleavage falls from 2.01 to 0.08.

GGCAGAGCUCAAAACAGCGUGGCAAAGUGGCUGUGGCUAGCCUGCC [C13A A41C] and GGCUGAGCUGAACACAGCGUGGCAAAGUGGCUGUGGCUAGACUGCC [A4U C10G] are the same in self-cleavage: 0.06 for the first, 0.06 for the second.

Going from GGCAGAGCUCAACACAGCGAGGCAAAGUGGCUGUGGCUAGACUGUC [U20A C45U] to GGCAGAGCUCAACACAGCGUGGCACAGUGGCUGCGGCUAGACUGCC [A25C U34C], the self-cleavage falls from 1.4 to 0.08.

Compared with GGCAGAGCUCCACACAGCGUGGCAAAGUGGGUGUGGCUAGACUGCC [A11C C31G], GGCAGAGCUCAACACAGGGUGGCAAAUUGGCUGUGGCUAGACUGCC [C18G G27U] is higher in self-cleavage: 0.01 for the first, 0.61 for the second.

Going from GGCUGAGCUCAACACAGCGUGGCAAAGUGACUGUGGCUAGACUGCC [A4U G30A] to GGCAGAGCUCAACACAGCGUGGCAAAGUGUAUGUGGCUAGACUGCC [G30U C31A], the self-cleavage falls from 0.42 to 0.19.

Going from GGCCGAGCUCAACACAGCGUGGCAACGUGGCUGUGGCUAGACUGCC [A4C A26C] to GGCCGAGCUCAACACAGCGUGGCAAAGUGGCUGUGGCUAGACUUCC [A4C G44U], the self-cleavage rises from 0.1 to 0.13.

Going from GCCAGAGCUCAACACAGCGUGGCAAAGUGGCUGUGACUAGACUGCC [G2C G36A] to GGCAGAGCUUAAAACAGCGUGGCAAAGUGGCUGUGGCUAGACUGCC [C10U C13A], the self-cleavage falls from 0.25 to 0.06.

Compared with GGCAGAGCUCGACACAGCGUGGCAAAGUGGCUGUGGCUAGACUGCC [A11G], GGCAGAGCUCAACACAACGUGGCAAAGUGGCUGUGGCUAGACUGAC [G17A C45A] is higher in self-cleavage: 0.04 for the first, 0.13 for the second.

Going from GGCAGAGCUCGACACAGCGUUGCAAAGUGGCUGUGGCUAGACUGCC [A11G G21U] to GGCAGAGAUCAACACAGCGUGGCAAAGUGGCGGUGGCUAGACUGCC [C8A U32G], the self-cleavage rises from 0.03 to 0.45.

First: GGCAGAGCUCAACACAGCGUGGCAAAGUGGCUGUAGCUAGACUGGC [G35A C45G]
Second: GGUAGAGCUCAACACGGCGUGGCAAAGUGGCUGUGGCUAGACUGCC [C3U A16G]
The self-cleavage of the first is lower: 0.13 for the first, 0.16 for the second.

Compared with GGCAGAGCUCAACACAGCGCGGCAAAGUCGCUGUGGCUAGACUGCC [U20C G29C], CGCAGAGCUAAACACAGCGUGGCAAAGUGGCUGUGGCUAGACUGCC [G1C C10A] is lower in self-cleavage: 0.31 for the first, 0.02 for the second.

Going from GGCAGAGCUCAACACAGCGUGGCAAAGUGGCUGUGGCUAGACUUUC [G44U C45U] to GGCAGAGCUCAACUCAGCGUGGCAAAGUCGCUGUGGCUAGACUGCC [A14U G29C], the self-cleavage rises from 0.14 to 0.41.

First: GGCAGAGCUCAAGACAGCGUGGCAAAGUCGCUGUGGCUAGACUGCC [C13G G29C]
Second: GGCAGAGCUCAACACAGCGUGGCAAAGUGGAUGUGGCUAAACUGCC [C31A G40A]
The self-cleavage of the first is higher: 0.11 for the first, 0.04 for the second.

Going from GGCACAGCUCAACACAGCGUGGCAAAGUGGCUGUGACUAGACUGCC [G5C G36A] to GGCCGAUCUCAACACAGCGUGGCAAAGUGGCUGUGGCUAGACUGCC [A4C G7U], the self-cleavage rises from 0.06 to 0.21.

Compared with GGCAGAGCUCAACACAGCGUGGCAAAGUGGCUUUGGCUAGACCGCC [G33U U43C], GGCAGAGCUCAACAUAGCGUGGCAAAGUGCCUGUGGCUAGACUGCC [C15U G30C] is higher in self-cleavage: 0.08 for the first, 0.09 for the second.

First: GGCAGAGCUCGACACAUCGUGGCAAAGUGGCUGUGGCUAGACUGCC [A11G G17U]
Second: GGCAGAGCUCAUCACAGCGUGGCAAGGUGGCUGUGGCUAGACUGCC [A12U A26G]
The self-cleavage of the first is lower: 0.03 for the first, 0.22 for the second.

First: GGCAGAGCUCAACACAGCGUGGCAGAGUGGAUGUGGCUAGACUGCC [A25G C31A]
Second: GGAAGAGCUCAACACAGCGUGGCAAAGUGGUUGUGGCUAGACUGCC [C3A C31U]
The self-cleavage of the first is lower: 0.1 for the first, 0.11 for the second.

Compared with GGCAUAGCUCAACACAGCGUGGCAAAGUGGCUGUGACUAGACUGCC [G5U G36A], GGCAGGGCUCAACACAGCGUGGCAAACUGGCUGUGGCUAGACUGCC [A6G G27C] is lower in self-cleavage: 0.33 for the first, 0.07 for the second.

Compared with GGCAGAGCUCAACACAACGUAGCAAAGUGGCUGUGGCUAGACUGCC [G17A G21A], GGCAGAGCUCAACACAGCGUGGCAAAGUUGCUGUGGCUAGUCUGCC [G29U A41U] is higher in self-cleavage: 0.22 for the first, 0.9 for the second.

First: GGCAGAGCUCAACACGGCGUUGCAAAGUGGCUGUGGCUAGACUGCC [A16G G21U]
Second: GGCAGAGCGCAACACAGCGUGGCAAAGUGGCUGUGGCUAGACUGCA [U9G C46A]
The self-cleavage of the first is higher: 0.48 for the first, 0.1 for the second.

Going from CGCAGAGCUCAACACAGCGUGGCAAAGUGGCUGUGGCUAGAGUGCC [G1C C42G] to GGCGUAGCUCAACACAGCGUGGCAAAGUGGCUGUGGCUAGACUGCC [A4G G5U], the self-cleavage rises from 0.01 to 0.16.

First: GGCAGAGCUCAACACAGCGUGGCCAAGUGGCUGUGCCUAGACUGCC [A24C G36C]
Second: GGCAGAGCUCAACACAGCGUGGCAAAGUGGCUGCGGCUAGACGGCC [U34C U43G]
The self-cleavage of the first is lower: 0.1 for the first, 0.31 for the second.

Compared with GGCAGAGCUCAGCACAGCGUGGCAAAGUGGCUGUGGCUAGACUACC [A12G G44A], AGCGGAGCUCAACACAGCGUGGCAAAGUGGCUGUGGCUAGACUGCC [G1A A4G] is higher in self-cleavage: 0.04 for the first, 0.31 for the second.

Compared with CGCAGAGCUCAACACAGCGUGGCAAAGUGGCUGUGGCUAGACUGCG [G1C C46G], GGCAGAGCUCAACACAGCGUGGCAAAGUGGGUGUGACUAGACUGCC [C31G G36A] is lower in self-cleavage: 0.3 for the first, 0.1 for the second.

First: GGCAGAGCUCAACACAGCGUGGCAUAGUGGCCGUGGCUAGACUGCC [A25U U32C]
Second: GGCAGAUCUCAACACGGCGUGGCAAAGUGGCUGUGGCUAGACUGCC [G7U A16G]
The self-cleavage of the first is higher: 0.27 for the first, 0.16 for the second.
